Experimental data taken from PMC7998035, “Restoration of the healing microenvironment in diabetic wounds with matrix-binding IL-1 receptor antagonist” (Communications Biology, 2021).

B1: murine wild-type platelet-derived growth factor-BB (PDGF-BB) (ligand, mouse, UniProt P31240 82-190, looked up)
chain: SLGSLAAAEPAVIAECKTRTEVFQISRNLIDRTNANFLVWPPCVEVQRCSGCCNNRNVQCRASQVQMRPVQVRKIEIVRKKPIFKKATVTLEDHLACKCETIVTPRPVT
notes: platelet-derived growth factor subunit B, mouse; PDGF-BB occurs as a dimer; source: bought: Peprotech
B2: human fibrinogen (complex)
chain 1: ADSGEGDFLAEGGGVRGPRVVERHQSACKDSDWPFCSDEDWNYKCPSGCRMKGLIDEVNQDFTNRINKLKNSLFEYQKNNKDSHSLTTNIMEILRGDFSSANNRDNTYNRVSEDLRSRIEVLKRKVIEKVQHIQLLQKNVRAQLVDMKRLEVDIDIKIRSCRGSCSRALAREVDLKDYEDQQKQLEQVIAKDLLPSRDRQHLPLIKMKPVPDLVPGNFKSQLQKVPPEWKALTDMPQMRMELERPGGNEITRGGSTSYGTGSETESPRNPSSAGSWNSGSSGPGSTGNRNPGSSGTGGTATWKPGSSGPGSTGSWNSGSSGTGSTGNQNPGSPRPGSTGTWNPGSSERGSAGHWTSESSVSGSTGQWHSESGSFRPDSPGSGNARPNNPDWGTFEEVSGNVSPGTRREYHTEKLVTSKGDKELRTGKEKVTSGSTTTTRRSCSKTVTKTVIGPDGHKEVTKEVVTSEDGSDCPEAMDLGTLSGIGTLDGFRHRHPDEAAFFDTASTGKTFPGFFSPMLGEFVSETESRGSESGIFTNTKESSSHHPGIAEFPSRGKSSSYSKQFTSSTSYNRGDSTFESKSYKMADEAGSEADHEGTHSTKRGHAKSRPV
chain 2: QGVNDNEEGFFSARGHRPLDKKREEAPSLRPAPPPISGGGYRARPAKAAATQKKVERKAPDAGGCLHADPDLGVLCPTGCQLQEALLQQERPIRNSVDELNNNVEAVSQTSSSSFQYMYLLKDLWQKRQKQVKDNENVVNEYSSELEKHQLYIDETVNSNIPTNLRVLRSILENLRSKIQKLESDVSAQMEYCRTPCTVSCNIPVVSGKECEEIIRKGGETSEMYLIQPDSSVKPYRVYCDMNTENGGWTVIQNRQDGSVDFGRKWDPYKQGFGNVATNTDGKNYCGLPGEYWLGNDKISQLTRMGPTELLIEMEDWKGDKVKAHYGGFTVQNEANKYQISVNKYRGTAGNALMDGASQLMGENRTMTIHNGMFFSTYDRDNDGWLTSDPRKQCSKEDGGGWWYNRCHAANPNGRYYWGGQYTWDMAKHGTDDGVVWMNWKGSWYSMRKMSMKIRPFFPQQ
chain 3: YVATRDNCCILDERFGSYCPTTCGIADFLSTYQTKVDKDLQSLEDILHQVENKTSEVKQLIKAIQLTYNPDESSKPNMIDAATLKSRKMLEEIMKYEASILTHDSSIRYLQEIYNSNNQKIVNLKEKVAQLEAQCQEPCKDTVQIHDITGKDCQDIANKGAKQSGLYFIKPLKANQQFLVYCEIDGSGNGWTVFQKRLDGSVDFKKNWIQYKEGFGHLSPTGTTEFWLGNEKIHLISTQSAIPYALRVELEDWNGRTSTADYAMFKVGPEADKYRLTYAYFAGGDAGDAFDGFDFGDDPSDKFFTSHNGMQFSTWDNDNDKFEGNCAEQDGSGWWMNKCHAGHLNGVYYQGGTYSKASTPNGYDNGIIWATWKTRWYSMKKTTMKIIPFNRLTIGEGQQHHLGGAKQAGDV
modifications: Plasma-derived intact fibrinogen (Enzyme Research Laboratories), fibrinopeptides A and B retained; disulfide-linked (AαBβγ)2 hexamer, N-glycosylated, Ca2+-bound. By convention, the major circulating …
B3: murine wild-type IL-1 receptor antagonist (IL-1Ra) (natural protein, mouse, UniProt P25085 27-178, looked up)
chain: RPSGKRPCKMQAFRIWDTNQKTFYLRNNQLIAGYLQGPNIKLEEKIDMVPIDLHSVFLGIHGGKLCLSCAKSGDDIKLQLEEVNITDLSKNKEEDKRFTFIRSEKGPTTSFESAACPGWFLCTTLEADRPVSLTNTPEEPLIVTKFYFQEDQ
notes: interleukin-1 receptor antagonist protein, mouse; also called interleukin-1 receptor antagonist

How the values were obtained:
Experiment in all cases: ELISA; ECM protein coated on the plate (100 nM in PBS, 1 h, 37 °C), blocked with 1% BSA in PBS-T; IL-1Ra or PDGF-BB variants at 0 to 100 nM in PBS-T with 0.1% BSA, 1 h, room temperature; bound protein detected with biotinylated antibodies (DuoSet); specific binding fitted with a one site-specific binding model; means of 3 independent experiments
Details in all cases: both partners purified
[1] = target: B2
[2] = target: T1, human tenascin C (human, UniProt P24821 23-2201)
T1 construct: tenascin C, human; also called TnC; source: bought: R&D Systems
T1 sequence (P24821 23-2201): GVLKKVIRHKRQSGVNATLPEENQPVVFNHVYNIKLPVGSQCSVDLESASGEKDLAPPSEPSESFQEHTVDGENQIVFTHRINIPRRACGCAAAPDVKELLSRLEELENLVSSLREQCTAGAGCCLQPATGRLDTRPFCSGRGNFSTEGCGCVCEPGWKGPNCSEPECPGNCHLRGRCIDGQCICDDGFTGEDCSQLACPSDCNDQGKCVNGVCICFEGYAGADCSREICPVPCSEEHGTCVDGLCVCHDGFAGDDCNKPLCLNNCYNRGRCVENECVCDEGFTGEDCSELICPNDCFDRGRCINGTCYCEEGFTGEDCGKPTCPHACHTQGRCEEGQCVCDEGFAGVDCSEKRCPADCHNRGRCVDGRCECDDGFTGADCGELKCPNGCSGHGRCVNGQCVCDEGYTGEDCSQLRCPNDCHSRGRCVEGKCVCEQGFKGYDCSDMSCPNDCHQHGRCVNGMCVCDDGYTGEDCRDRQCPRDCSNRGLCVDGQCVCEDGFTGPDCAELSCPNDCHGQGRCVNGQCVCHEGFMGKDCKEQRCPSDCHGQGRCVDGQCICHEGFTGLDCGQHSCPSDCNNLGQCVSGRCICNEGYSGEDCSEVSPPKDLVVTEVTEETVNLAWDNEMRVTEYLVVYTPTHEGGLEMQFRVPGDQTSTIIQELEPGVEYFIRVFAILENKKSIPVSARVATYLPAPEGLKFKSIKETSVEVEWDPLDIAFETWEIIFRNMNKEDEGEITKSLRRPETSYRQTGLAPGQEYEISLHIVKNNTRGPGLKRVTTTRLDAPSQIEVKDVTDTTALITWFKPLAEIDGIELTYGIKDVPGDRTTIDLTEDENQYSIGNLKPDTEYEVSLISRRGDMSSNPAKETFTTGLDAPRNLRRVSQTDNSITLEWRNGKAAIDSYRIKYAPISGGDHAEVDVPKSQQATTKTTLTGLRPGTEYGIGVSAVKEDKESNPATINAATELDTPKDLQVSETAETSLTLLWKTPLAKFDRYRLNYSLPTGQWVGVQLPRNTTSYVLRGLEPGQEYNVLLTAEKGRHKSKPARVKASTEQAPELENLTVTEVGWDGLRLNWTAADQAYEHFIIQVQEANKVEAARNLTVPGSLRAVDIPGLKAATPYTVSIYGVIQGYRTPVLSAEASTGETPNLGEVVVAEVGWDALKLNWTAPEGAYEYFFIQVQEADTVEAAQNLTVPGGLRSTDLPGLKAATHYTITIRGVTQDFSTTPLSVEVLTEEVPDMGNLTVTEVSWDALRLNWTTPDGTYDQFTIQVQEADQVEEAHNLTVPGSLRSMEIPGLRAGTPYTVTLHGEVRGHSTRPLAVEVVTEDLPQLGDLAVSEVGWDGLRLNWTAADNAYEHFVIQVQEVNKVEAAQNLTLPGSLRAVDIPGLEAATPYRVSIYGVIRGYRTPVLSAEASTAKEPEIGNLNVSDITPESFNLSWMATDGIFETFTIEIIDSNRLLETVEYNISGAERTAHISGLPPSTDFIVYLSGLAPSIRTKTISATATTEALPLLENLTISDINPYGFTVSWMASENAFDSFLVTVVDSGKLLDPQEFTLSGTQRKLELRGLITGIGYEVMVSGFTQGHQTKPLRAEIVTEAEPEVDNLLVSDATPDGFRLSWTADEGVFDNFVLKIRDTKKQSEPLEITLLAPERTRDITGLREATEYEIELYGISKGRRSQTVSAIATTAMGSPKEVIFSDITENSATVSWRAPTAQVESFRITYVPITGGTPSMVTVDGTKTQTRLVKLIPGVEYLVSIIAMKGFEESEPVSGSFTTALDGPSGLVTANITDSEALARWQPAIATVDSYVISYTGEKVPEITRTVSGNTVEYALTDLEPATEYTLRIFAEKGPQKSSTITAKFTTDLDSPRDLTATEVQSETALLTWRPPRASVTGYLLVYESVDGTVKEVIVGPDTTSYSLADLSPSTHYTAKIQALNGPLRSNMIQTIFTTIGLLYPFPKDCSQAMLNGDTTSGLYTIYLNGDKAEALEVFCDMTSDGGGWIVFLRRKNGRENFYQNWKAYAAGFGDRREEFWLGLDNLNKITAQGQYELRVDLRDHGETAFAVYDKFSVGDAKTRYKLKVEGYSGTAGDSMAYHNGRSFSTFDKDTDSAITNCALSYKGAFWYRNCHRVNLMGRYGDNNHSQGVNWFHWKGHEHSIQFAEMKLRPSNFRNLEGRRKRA

[3] = target: T2, human vitronectin (human, UniProt P04004 20-478)
T2 construct: vitronectin, human; also called Vn; source: bought: Peprotech
T2 sequence (P04004 20-478): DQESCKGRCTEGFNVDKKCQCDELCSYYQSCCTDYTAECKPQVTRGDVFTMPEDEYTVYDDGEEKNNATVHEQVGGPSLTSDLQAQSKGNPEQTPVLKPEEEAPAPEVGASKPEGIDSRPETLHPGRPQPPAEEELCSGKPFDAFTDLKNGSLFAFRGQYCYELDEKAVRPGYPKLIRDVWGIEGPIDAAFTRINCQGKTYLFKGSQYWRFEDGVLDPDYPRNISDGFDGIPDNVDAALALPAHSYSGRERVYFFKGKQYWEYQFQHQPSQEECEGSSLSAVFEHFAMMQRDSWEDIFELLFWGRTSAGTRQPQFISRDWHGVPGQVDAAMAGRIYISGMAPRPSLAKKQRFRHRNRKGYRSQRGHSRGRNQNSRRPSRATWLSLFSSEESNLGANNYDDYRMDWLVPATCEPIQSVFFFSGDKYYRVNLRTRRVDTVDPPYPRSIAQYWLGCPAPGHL

[4] = target: human plasma fibronectin (human)
human plasma fibronectin (human), sequence (P02751 other isoform, or with tags, fused parts or gaps): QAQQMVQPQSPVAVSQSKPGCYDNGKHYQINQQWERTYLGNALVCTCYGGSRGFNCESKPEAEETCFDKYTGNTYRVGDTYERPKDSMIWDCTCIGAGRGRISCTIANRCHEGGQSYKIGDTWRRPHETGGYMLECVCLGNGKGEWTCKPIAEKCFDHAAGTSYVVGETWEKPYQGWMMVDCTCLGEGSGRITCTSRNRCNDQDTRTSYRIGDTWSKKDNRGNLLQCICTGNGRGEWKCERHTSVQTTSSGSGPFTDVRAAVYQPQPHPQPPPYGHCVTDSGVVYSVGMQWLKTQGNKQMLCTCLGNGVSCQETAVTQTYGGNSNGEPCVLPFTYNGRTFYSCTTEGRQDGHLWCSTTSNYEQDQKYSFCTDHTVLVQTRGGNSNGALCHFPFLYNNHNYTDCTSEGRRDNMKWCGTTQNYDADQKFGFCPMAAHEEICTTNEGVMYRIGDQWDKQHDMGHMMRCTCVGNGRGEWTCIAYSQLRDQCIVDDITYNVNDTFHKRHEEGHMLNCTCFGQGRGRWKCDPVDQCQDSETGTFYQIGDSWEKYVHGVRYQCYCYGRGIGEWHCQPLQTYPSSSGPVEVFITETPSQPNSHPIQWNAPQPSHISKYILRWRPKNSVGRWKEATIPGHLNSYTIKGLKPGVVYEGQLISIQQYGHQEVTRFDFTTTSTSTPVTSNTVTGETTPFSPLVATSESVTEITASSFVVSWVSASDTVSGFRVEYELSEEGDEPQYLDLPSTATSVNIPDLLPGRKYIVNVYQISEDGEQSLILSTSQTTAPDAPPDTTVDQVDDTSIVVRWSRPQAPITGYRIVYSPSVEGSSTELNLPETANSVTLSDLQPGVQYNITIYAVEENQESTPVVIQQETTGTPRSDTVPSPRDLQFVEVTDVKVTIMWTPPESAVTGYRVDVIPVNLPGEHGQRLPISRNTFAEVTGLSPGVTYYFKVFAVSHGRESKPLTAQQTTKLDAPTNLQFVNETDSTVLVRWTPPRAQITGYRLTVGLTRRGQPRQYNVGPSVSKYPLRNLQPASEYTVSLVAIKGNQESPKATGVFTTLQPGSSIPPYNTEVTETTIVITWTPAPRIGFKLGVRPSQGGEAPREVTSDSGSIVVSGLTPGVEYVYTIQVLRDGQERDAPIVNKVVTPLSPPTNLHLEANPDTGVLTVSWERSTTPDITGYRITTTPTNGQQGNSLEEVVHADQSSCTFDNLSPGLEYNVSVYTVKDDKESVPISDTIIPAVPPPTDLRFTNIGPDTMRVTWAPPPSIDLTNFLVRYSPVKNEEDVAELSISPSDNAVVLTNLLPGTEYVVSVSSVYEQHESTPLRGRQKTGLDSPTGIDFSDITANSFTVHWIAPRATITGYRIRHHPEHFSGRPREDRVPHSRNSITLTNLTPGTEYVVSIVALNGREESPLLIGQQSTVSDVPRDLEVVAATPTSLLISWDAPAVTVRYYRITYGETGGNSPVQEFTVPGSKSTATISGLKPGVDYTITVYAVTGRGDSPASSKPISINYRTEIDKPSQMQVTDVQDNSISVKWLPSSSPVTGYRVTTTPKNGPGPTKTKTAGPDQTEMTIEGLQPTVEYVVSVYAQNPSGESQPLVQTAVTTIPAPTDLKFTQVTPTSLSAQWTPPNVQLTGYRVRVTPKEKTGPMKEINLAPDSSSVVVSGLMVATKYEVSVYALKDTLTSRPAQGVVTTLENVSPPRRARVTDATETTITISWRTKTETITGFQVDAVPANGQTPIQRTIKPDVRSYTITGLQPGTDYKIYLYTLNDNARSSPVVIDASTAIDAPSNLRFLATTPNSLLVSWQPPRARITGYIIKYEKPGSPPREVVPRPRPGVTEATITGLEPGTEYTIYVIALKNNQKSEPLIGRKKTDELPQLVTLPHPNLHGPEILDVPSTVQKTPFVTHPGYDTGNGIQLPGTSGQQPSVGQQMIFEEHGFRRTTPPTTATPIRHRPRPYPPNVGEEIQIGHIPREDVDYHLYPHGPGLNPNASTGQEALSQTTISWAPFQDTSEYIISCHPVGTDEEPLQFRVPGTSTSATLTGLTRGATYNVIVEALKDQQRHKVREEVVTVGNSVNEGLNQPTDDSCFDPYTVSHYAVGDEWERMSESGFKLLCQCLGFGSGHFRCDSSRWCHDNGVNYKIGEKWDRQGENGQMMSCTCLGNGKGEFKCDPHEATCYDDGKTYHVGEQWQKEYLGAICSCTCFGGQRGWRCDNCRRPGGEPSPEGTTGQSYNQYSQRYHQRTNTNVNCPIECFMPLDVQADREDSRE

[5] = target: T3, PDGF-BB/PlGF123-141
T3 construct: platelet-derived growth factor subunit B; also called engineered PDGF-BB

[6] = target: T4, IL-1Ra/PlGF123-141
T4 construct: interleukin-1 receptor antagonist; source: E. coli BL21 (DE3), pET-22b, soluble fraction purified (chelating SFF(Ni) column)
T4 sequence (P18510 whole entry): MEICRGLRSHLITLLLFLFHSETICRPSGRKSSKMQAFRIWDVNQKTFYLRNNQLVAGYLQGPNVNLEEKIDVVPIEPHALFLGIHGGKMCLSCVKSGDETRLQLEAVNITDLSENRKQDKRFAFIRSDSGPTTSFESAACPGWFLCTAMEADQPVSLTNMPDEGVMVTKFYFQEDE

Row | Binder | Kd [1] [nM] | Kd [2] [nM] | Kd [3] [nM] | Kd [4] [nM] | Kd [5] [nM] | Kd [6] [nM]
1 | B1 | 206 | 94.3 | 32.1 | 67.5 |  | 
2 | B2 |  |  |  |  | 16.7 | 43.5
3 | B3 | 663 | 113 | 73.2 | 129 |  | 
